Reference: paper PMC4914967, “An evolutionarily conserved SSNA1/DIP13 homologue is a component of both basal and apical complexes of Toxoplasma gondii” (Scientific Reports, 2016)

Target: the molecule itself
Assay: SDS-PAGE with Coomassie staining and anti-His immunoblot; purified His-tagged recombinant TgDIP13 resolved on a gel; bands at ~18 kDa (monomer) and ~36 kDa (dimer)

B1: His-tagged recombinant TgDIP13 (Toxoplasma gondii SSNA1/DIP13 homologue) (natural protein, UniProt A0A125YRV3 1-150, looked up)
chain: MTSTTNSNLHNYNHELVACIDDLRRKREEVHRQIIKEEEDRAKVQKEIALLQERLQKLNDSITRKIQARNEYDKTILETEAAYTKILESAQTLLHVLKRESVHLGRKTSGDRAELPGIGITGVGVDYSPNSVSELSHRRAEKGKPTAGAG
notes: TgDIP13, the SSNA1/DIP13 homologue of Toxoplasma gondii (ToxoDB entry TGME49_295450); the TgDIP13 gene was amplified from T. gondii cDNA with primers ML2448/ML2449 and cloned NdeI/XhoI into pET24a+; Apparent mass of the monomer ~18 kDa; also called T. gondii SSNA1/DIP13 homologue; not shown: His6, C-terminal, kept
Question: For B1, which “stoichiometry N” value is on record?
Answer: 2
